Experimental data taken from US20220380473A1, “ANTI-GAL3 ANTIBODIES AND USES THEREOF” (TrueBinding, Inc., priority 2019, published 2022).
“Also recorded” adds a separate entry of the source.

B1: 24D12.2H9: murine anti-Gal3 antibody (antibody, V domains shown)
VH: QVQLKQSGPGLVQPSQSLSITCTVSGFSLTSYGVHWVRQAPGKGLEWLGVIWSGGSTDYNAAFMSRLSISKDNSKSQVFFKMNSLQADDTAIYYCAKSPDGYDVAWFGYWGQGTLVTVSA
VL: DIVMTQSHKFMSTSVGDRVSITCKASQDVRTAVAWYQQKPGQSPKLLIYWASTRHTGVPDRFTGSGSGTDFTLTLSNVQSEDLADYFCQQYSSYPWTFGGGTKLEIK
modifications: VH of 24D12.2H9; VL of 24D12.2H9
notes: murine anti-Gal3 antibody
B2: 19B5.2E6: murine anti-Gal3 antibody (antibody, V domains shown)
VH: QIQLVQSGPELKKPGETVKISCKASGYTFTTYAMSWVKQAPGKGLKWMGWINTYSGVPTYADDLKGRFAFSLETSASTAYLQINNLKNEDTATYFCARGPYAMDYWGQGTSVTVSS
VL: DIQMTQTTSSLSASLGDRVTISCSASQGINNYLNWYQQKPDGTVKLLIYYASSLHSGVPSRFSGSGSGTDYSLTISNLEPEDIATYYCQQYSQVPYTFGSGTKLEIK
B3: 23H9.2E4: murine anti-Gal3 antibody (antibody, V domains shown)
VH: QIQLVQSGPELKKPGETVKISCKASGYTFTTYAMSWVKQAPGKGLKWMGWINTYSGVPTYADDLKGRFAFSLETSASTAYLQINNLKNEDTATYFCARGPYAMDYWGQGTSVTVSS
VL: DIQMTQTTSSLSASLGDRVTISCSASQGINNYLNWYQQKPDGTVKLLIYYASSLHSGVPSRFSGSGSGTDYSLTISNLEPEDIATYYCQQYSQVPYTFGSGTKLEIK
B4: 12G5.D7: murine anti-Gal3 antibody (antibody, V domains shown)
VH: QVQLKQSGAELVRPGASVKLSCKASGYTFTDYYINWVKQRPGQGLEWIARIYPGTGNTDYNEKFKGRATLTAEKSSSTAYMQLSSLTSEDSAVYFCARFAYYYGSGGYFDYWGHGTTLTVSS
VL: DILMTQSPSSMSVSLGDTVSITCHASQGINSNMGWLQQKPGKSFKGLIYHATNLEDGVPSRFSGSGSGADYSLTISSLESEDFADYYCVQYAQFPPTFGSGTKLEIK
modifications: VH of 12G5.D7; VL of 12G5.D7
notes: murine anti-Gal3 antibody
B5: 846.1F5: murine anti-Gal3 antibody (antibody, V domains shown)
VH: QIQLVQSGPELKKPGETVKISCKASGYTFTNYGMNWVKQAPGKGLKWMGWINTYTGEPSYADDFKGRFAFSLETSASTAYLQINNLKNEDMATYFCARWGGYDGDYYAMDYWGQGTSVTVSS
VL: NIMMTQSPSSLAVSAGEKVTMSCKSSQSVLYSSNQKNYLAWYQQKPGQSPKLLIYWASTRESGVPDRFTGSGSGTDFTLTISSVQPEDLAVYYCHQYLSSLTFGAGTKLELK
B6: 15F10.2D6: murine anti-Gal3 antibody (antibody, V domains shown)
VH: EVQLVESGGGLVKPGGSLKLSCAASGFAFSSYAMSWVRQTPEKRLEWVATISDGGVYTYYTDHVKGRFTISRDNAEDNLYLQMSHLKSEDTAMYYCVRDGGYWGQGTTLTVSS
VL: DVLMTQTPLSLPVSLGDQASISCRSSQSIVHNNGNTYLEWYLQKPGQSPKLLIYKVSNRFSGVPDRFSGSGSGTDFTLKISRVEAEDLGVYYCFQGSHVPLTFGGGTKLELK
B7: 20D11.2C6: murine anti-Gal3 antibody (antibody, V domains shown)
VH: EVQLQQSGPELVKPGASVKISCKASGYTFTDFYINWVKQSHGKSLEWIGDINPKNGGINYNPKFKIKATLTVDKSSSTSYMDLRGLTSEDSAVYYCTSGYGFPYWGQGTLVTVSA
VL: DIQMNQSPSSLSASLGDTITITCRASQNIYIWLSWYQQKPGNIPKLLIYKASNLHTGVPSRFSGSGSGTDFTLTISTLQPEDIATYFCLQGQSYPLTFGAGTKLEMK

What was measured:
Galectin-3 = Galectin-3 (Homo sapiens, UniProt P17931); test: SPR (BiacoreT200) binding affinity; settings: 25° C., read-out: hGal-3 KD
Experimental: GAL3-binding antibodies were evaluated for their binding affinity by SPR. Kinetics experiments were performed on BiacoreT200 at 25° C. in high performance mode. Ligand proteins, purified antibodies were captured onto a CM5 chip coupled with anti-human Fc or anti-mouse Fc antibody, three antibodies at a time onto flow cell #2, 3, and 4, respectively, while flow cell #1 was used as reference. The analyte Galectin-3 in HBS-EP buffer was injected over all four flow cells at concentrations of 100, 50, 25, 12.5, 6.25, 3.125 and 0 nM at a flow rate of 30 μL/min. The complex was allowed to associate and dissociate for 240 and 300 seconds, respectively. The surfaces were regenerated with a 30 second injection of 10 mM Glycine pH 1.7 (flow rate 30 μL/min). The data were fit to a simple 1:1 interaction model using the global data analysis option available within BiacoreT200 Evaluation software V2.0. The affinity of Gal3 monoclonal antibodies was confirmed to be […] 30 nM for all antibodies studied (Table 24.1). Antibodies with affinity less than 2E-7 were selected for further characterization.

[1] = target: T1, association of GAL3 and TIM3 (Homo sapiens, UniProt P17931); test: GAL3-TIM3 blocking ELISA (Examples 24, 27); assay type: binding; settings: 3 ug/mL antibody
T1 construct: full-length human Galectin-3 protein (Acro Biosystems, GA3-H5129); linker-spaced 6-histidine tag; purchased Acro Biosystems GA3-H5129 (Gal3); TM3-H5229 (TIM-3)
Experimental: Positively scoring wells were evaluated for the ability to block association of GAL3 and TIM3. To identify GAL3-targeted antibodies with the ability to block the interaction of GAL3 and TIM3, purified GAL3 and TIM3 proteins were incubated in the presence of GAL3-immunization hybridoma supernatants described above, or without antibody, and protein interaction was evaluated by ELISA. Human Galectin-3 protein (Acro Biosystems, GA3-H5129) was diluted in PBS (Corning, 21-030-CM) to a concentration of 3 μg/ml and added to the wells of a 96-well ELISA plate (Thermo Fisher, 44-2404-21). After incubating the plate at 4° C. overnight, the plate was washed three times with PBST (PBS with 0.05% Tween 20 [VWR, 0777]). The plate was then blocked for an hour with 2% BSA (EMD Millipore, 126609) in PBST at room temperature with gentle rocking. Thereafter, the 2% BSA in PBST was discarded and antibody or inhibitor (3-fold dilutions beginning at 20 μg/ml, 60 μg/ml, or 180 μM) in 2% BSA in PBST was added to the wells. Afterwards, 2 μg/ml of human TIM3 (Aero Biosystems, TM3-H5229) in 2% BSA in PBST was added to the antibody or inhibitor in the wells in a 1:1 ratio. The plate was incubated for an hour at room temperature with gentle rocking. Thereafter, the plate was washed three times with PBST, and 0.3 μg/ml of human TIM3 Biotinylated Antibody (R&D Systems, BAF2365) in 2% BSA in PBST was added to the wells. The plate was incubated for an hour with gentle rocking and then washed three times with PBST. Avidin-HRP (1:2000) was then added to the wells. The plate was incubated at room temperature for an hour with gentle rocking and then washed three times with PBST. TMB substrate (Thermo Scientific, 34029) was then added to each well. The reaction was stopped with 1M HCl (JT Baker, 5620-02) and read using a plate reader (Molecular Devices) at absorbance of 450 nm.

hGal3 peptide = test: Gal3 peptide library ELISA (Example 25); assay type: binding, human; settings: for Epitope Mapping: hGal3 peptide No. bound; for Gal3 peptide bound: peptide array ELISA
Experimental: To identify the epitopes to which Gal3 antibodies with and without Gal3-TIM3 blocking activity bound, a library of 20 amino acid peptides representing portions of Gal3, summarized in Table 24.1, was produced and the ability to bind Gal3 antibodies was evaluated by ELISA.
At least 2 μg/ml of hGal3 peptide in 50 μl of PBS or 0.1 μg/ml of full-length human Gal3 protein (GenScript) and human Galectin-3 protein (Acro Biosystems, GA3-H5129) were diluted in PBS (Corning, 21-030-CM) to concentrations of at least 2 μg/ml or 0.1 μg/ml, respectively, and added to the wells of a 96-well ELISA plate (Thermo Fisher, 44-2404-21). After incubating the plate at 4° C. overnight, the plate was washed three times with PBST (PBS with 0.05% Tween 20 [VWR, 0777]). The plate was then blocked for an hour with 2% BSA (EMD Millipore, 126609) in PBST at room temperature with gentle rocking. Thereafter, the 2% BSA in PBST was discarded and human Galectin-3 hybridoma supernatants or antibodies were diluted in 2% BSA in PBST to concentrations of at least 0.1 μg/ml and added to the wells. The plate was incubated for an hour at room temperature with gentle rocking and then washed three times with PBST. Afterwards, Goat Anti-Mouse IgG-HRP (Jackson ImmunoResearch, 115-036-1461) or Goat Anti-Rat IgG HRP (abcam, ab205720) diluted in 2% BSA in PBST (1:4000) were added to the wells. The plate was incubated for 30 minutes to 1 hour at room temperature with gentle rocking and then washed three times with PB ST. TMB substrate (Thermo Scientific, 34029) was then added to each well. The reaction was stopped with 1M HCl (JT Baker, 5620-02) and read using a plate reader (Molecular Devices) at absorbance of 450 nm.

human Gal3-His = human Gal3-His (Homo sapiens, UniProt P17931); test: Antibody binning by biolayer interferometry (Gator); assay type: binding; settings: antibody competition
Experimental: To determine whether Gal3-binding antibodies with Gal3-TIM3 blocking activity bind to the same or overlapping regions of the Gal3 molecule, antibody binning assays were performed to assess the ability of antibodies to simultaneously bind Gal3. Amine-reactive probes were loaded onto a Gator biosensor (Probe Life, Palo Alto, Calif.), equilibrated in dH20 for 60 seconds, dipped into 100 μl EDC 0.2M/NHS 0.05M activation buffer for 30 seconds, then dipped into a solution of […] human Gal3-His in 10 mM NaOAc buffer, pH 5 until binding was saturated, and quenched in 1 M ethanolamine pH 8.5 for 300 seconds. Following Gal3-His loading, tips were dipped in 20 μg/mL saturating antibody, then successively dipped into 5 μg/mL competing antibody.

Chain of Galectin-3 (P17931 whole entry): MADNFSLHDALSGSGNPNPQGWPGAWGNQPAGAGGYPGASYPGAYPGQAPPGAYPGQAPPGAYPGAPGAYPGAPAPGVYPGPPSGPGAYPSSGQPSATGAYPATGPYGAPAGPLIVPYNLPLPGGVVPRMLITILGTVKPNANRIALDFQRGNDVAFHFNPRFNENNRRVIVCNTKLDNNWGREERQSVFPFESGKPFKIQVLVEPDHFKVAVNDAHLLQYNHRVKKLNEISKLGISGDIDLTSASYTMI
Chain of human Gal3-His (P17931 whole entry): as above
T1 sequence (P17931 2-250 limits assumed): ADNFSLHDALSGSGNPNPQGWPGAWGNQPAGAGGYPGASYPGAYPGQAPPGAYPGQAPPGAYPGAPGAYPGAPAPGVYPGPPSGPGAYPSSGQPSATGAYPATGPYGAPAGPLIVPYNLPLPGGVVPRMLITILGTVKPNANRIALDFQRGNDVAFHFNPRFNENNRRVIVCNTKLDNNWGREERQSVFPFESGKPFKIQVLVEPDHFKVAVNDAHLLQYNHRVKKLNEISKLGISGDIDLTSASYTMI

| Molecule | Kd (Galectin-3) [nM] | GAL3-TIM3 Blocking @ 3 ug/mL [1] [%] | Epitope Mapping (hGal3 peptide) | Bin (human Gal3-His) | Gal3 peptide bound (hGal3 peptide) |
| --- | --- | --- | --- | --- | --- |
| B1 | 4.13 | 0 | Non-linear | 11 |  |
| B2 | < 1 | 61 | 1,7 | 4 | peptide 1; also recorded: peptide 7 |
| B3 | 4.26 | 80 | 1,7 | 4 | peptide 1; also recorded: peptide 7 |
| B4 | 1.9 | 12 | Non-linear | 10 |  |
| B5 | 2.73 | 90 | 6 | 3 | peptide 6 |
| B6 | 2.06 | 19 | 2,7 | 8 | peptide 7 |
| B7 | 27.8 | 40 |  | 5 | peptide 1; also recorded: peptide 7 |
